According to US20260364215A1, “Radiopharmaceutical Compositions Targeting Ephrin Type-A Receptor 2 and Uses Thereof” (PeptiDream Inc., priority 2022, published 2026):
Numbered stars: 1 amine (or outer) side, 2 acyl side, 3 side chain; on linkers, the order of the positions; unused ones are H or OH. Bridge positions count the residues as written; N and C are the ends. Square brackets hold non-standard residues; d marks the D form. Side chains are listed from the residue outwards. Peptide text beside a SMILES is read from it. * marks the point of attachment. DOTA = O=C(O)CN1CCN(CC(=O)O)CCN(CC(=O)*)CCN(CC(=O)O)CC1; Trp(1-Me,7-Cl) = Cn1cc(C[C@H](N)C(=O)O)c2cccc(Cl)c21; dPhe(3-CONH2) = NC(=O)c1cccc(C[C@@H](N)C(=O)O)c1; Piperazinyl(4-CH2COOH) = O=C(O)CN1CCN(*)CC1; Trp(1-Me) = Cn1cc(C[C@H](N)C(=O)O)c2ccccc21; PEG8 = NCCOCCOCCOCCOCCOCCOCCOCCOCCC(=O)O; NMe3Pal = CN[C@@H](Cc1cccnc1)C(=O)O; NMeF = CN[C@@H](Cc1ccccc1)C(=O)O; hArg = N=C(N)NCCCC[C@H](N)C(=O)O; Gly(cBu) = N[C@H](C(=O)O)C1CCC1; NMeE = CN[C@@H](CCC(=O)O)C(=O)O; Aad = N[C@@H](CCCC(=O)O)C(=O)O; AEEA = NCCOCCOCC(=O)O; CO = O=C([*:1])[*:2]; βAla = NCCC(=O)O

Legend:
[1] = Plasma stability (% remaining and T1/2 of test compound in human plasma; Table C1); assay type: in vitro ADME; conditions: for % Remaining Human: 0 min; for remaining at 2 h: 120 min
Description: (§1) The % remaining of test compound after incubation in plasma was calculated using the following equation:
(§2) % Remaining=100×(PAR(t)/PAR(t0)), where PAR is the peak area ratio of analyte versus internal standard (IS)

[2] = Plasma stability (% remaining of test compound in CD-1 (ICR) mouse plasma at 37 °C; Example C1); assay type: in vitro ADME; conditions: for % Remaining Mouse: 0 min; for remaining at 2 h, 2 µM: pH 7.4, 120 min; for half-life at 2 µM: pH 7.4, read-out: T1/2 (min) Mouse
Description: Example C1. Plasma Stability
The pooled frozen CD-1 (ICR) mouse plasma was thawed in a water bath at 37 °C prior to experiment. Plasma was centrifuged at 4000 rpm for 5 min and the clots were removed if any. pH was adjusted to 7.4±0.1 if required.
Plasma (98 μL) and test compounds (2 μL, 100 μM, in DMSO) or reference compound propantheline bromide (2 μL, 100 μM in 40% v/v MeOH/H2O) were added to the individual wells of a 96-well microtiter plate in duplicate. The plate was incubated at 37 °C. During the incubation, aliquots were withdrawn at 0, 10, 30, 60, 120, and 300 minutes. 100 μL 4% H3PO4 and 800 μL of stop solution (200 ng/mL tolbutamide and 200 ng/mL labetalol in 100% CH3CN) were added to precipitate unwanted proteins. After mixing thoroughly, the quenched aliquots were centrifuged at 4,000 rpm for 20 min. Aliquots (100 μL) of supernatant were transferred to a new plate. The samples were shaken at 800 rpm for 10 min before performing LC-MS/MS analysis.
The analytes were detected by a multiple reaction monitoring method using a SCIEX Triple Quad 6500+ system equipped with an ACQUITY UPLC HSS T3 column (100 Å, 1.8 μm, 2.1 mm×30 mm). Mobile phase A: water with 0.1% formic acid; Mobile phase B: CH3CN with 0.1% formic acid.
as §1, §2

[3] = molecular target: T1, Recombinant Human EphA2 Fc Protein (Homo sapiens, UniProt P29317); experiment: Interaction analysis (kinetics, KD) of peptides and conjugates against EphA2 by SPR, Biacore T200, single-cycle kinetics (Examples B15 and B22); assay type: binding; conditions: conjugates, Biacore T200 according to Example B15, Table B16; read-out: SPR Kd
T1 construct: purchased Elabscience
Method in brief: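 Biacore T200 SPR with Fc-tagged human EphA2 captured via anti-human antibody; running buffer HBS-P+ pH 7.4 with 1% DMSO, 25 °C. Five serial dilutions of peptide or conjugate run by single-cycle kinetics; KD from ka and kd after baseline subtraction.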

[4] = molecular target: T2, EphA2 (Biotin-Avi-His-EphA2; Fc-EphA2 where the peptide had a biotin) (Homo sapiens, UniProt P29317); experiment: Surface plasmon resonance (SPR) peptide binding, Biacore 8K, immobilized EphA2, single cycle kinetics (Example C7); conditions: 25 °C, Langmuir 1:1
T2 construct: His; purchased SinoBiologicals 13926-H27H-B
Description: Example C7. Surface Plasmon Resonance (SPR)
For analysis of peptide binding, a Biacore 8K instrument was used utilizing a SA chip. Biotin-Avi-His-EphA2 (SinoBiologicals, 13926-H27H-B) was immobilized on the chip using streptavidin-biotin chemistry at 25 °C in HBS-P+ buffer (10 mM HEPES, 150 mM NaCl, 0.05% Tween-20, pH 7.4) to a level of 1000-2000 RU (dependent on the analyte molecular weight). […] A dilution series of peptides was prepared in this buffer with a final DMSO concentration of 0.1% with a top peptide concentration between 10-100 nM and 9 further 2-fold dilutions. The SPR analysis was run at 25 °C at a flow rate of 30 μL/min in HBS-P+ with 0.1% DMSO running buffer and with a 120 second association and 1,200 second dissociation using single cycle kinetics methodology. All data was analyzed using Biacore Insight Evaluation Software version 4. Data was fitted using a Langmuir 1:1 binding model.

T1 sequence (P29317 24-534 limits assumed): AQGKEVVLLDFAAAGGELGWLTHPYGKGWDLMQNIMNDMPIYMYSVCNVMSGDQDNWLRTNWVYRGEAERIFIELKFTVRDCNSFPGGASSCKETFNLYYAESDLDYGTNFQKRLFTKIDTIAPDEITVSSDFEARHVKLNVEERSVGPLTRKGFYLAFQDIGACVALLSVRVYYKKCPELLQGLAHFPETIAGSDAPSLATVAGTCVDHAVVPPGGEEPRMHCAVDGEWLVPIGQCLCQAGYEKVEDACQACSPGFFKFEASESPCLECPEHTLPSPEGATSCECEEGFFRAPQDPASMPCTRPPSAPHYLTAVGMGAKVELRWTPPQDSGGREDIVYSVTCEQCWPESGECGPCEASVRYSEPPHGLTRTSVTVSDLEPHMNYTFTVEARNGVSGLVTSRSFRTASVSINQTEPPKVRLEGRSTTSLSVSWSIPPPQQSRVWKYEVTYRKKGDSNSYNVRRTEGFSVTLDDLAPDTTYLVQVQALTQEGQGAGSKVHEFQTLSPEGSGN
T2 sequence (P29317 24-534 limits assumed): as above

CC(C)C[C@@H]1NC(=O)[C@H](CC(N)=O)NC(=O)[C@H](Cc2cccnc2)N(C)C(=O)[C@@H](C)NC(=O)CSC[C@@H](C(=O)N[C@H](CCCCNC(=O)CN(C)C(=O)CN(C)C(=O)CN(C)C(=O)CN(C)C(=O)CN(C)C(=O)CN(C)C(=O)CN(C)C(=O)CN(C)C(=O)CN(C)C(=O)CN(C)C(=O)CCNC(=O)CN2CCN(CC(=O)O)CCN(CC(=O)O)CCN(CC(=O)O)CC2)C(N)=O)NC(=O)[C@H](CCCC(N)=O)NC(=O)[C@H]([C@@H](C)O)NC(=O)[C@H](Cc2cn(C)c3ccccc23)NC(=O)[C@H](CCCCNC(=O)N2CCN(CC(=O)O)CC2)NC(=O)[C@H](Cc2cn(C)c3ccccc23)NC(=O)[C@H](Cc2ccccc2)N(C)C(=O)[C@H](CCCC(N)=O)NC1=O.[Lu+3] [PDC_EphA2-00008093-C310]
half-life [1]: > 4.82 h
% Remaining Human [1]: 100.0%
remaining at 2 h [1]: 99%
% Remaining Mouse [2]: 100.0%
remaining at 2 h, 2 µM [2]: 107%
half-life at 2 µM [2]: > 289 min
Kd [3]: < 1 nM

CC(C)C[C@@H]1NC(=O)[C@H](CC(N)=O)NC(=O)[C@H](Cc2cccnc2)N(C)C(=O)[C@@H](C)NC(=O)CSC[C@@H](C(=O)N[C@H](CCCCNC(=O)CN2CCN(CC(=O)O)CCN(CC(=O)O)CCN(CC(=O)O)CC2)C(N)=O)NC(=O)[C@H](CCCCNC(=N)N)NC(=O)[C@H]([C@@H](C)O)NC(=O)[C@H](Cc2cn(C)c3ccccc23)NC(=O)[C@H](CCCCNC(=O)N2CCN(CC(=O)O)CC2)NC(=O)[C@H](Cc2cn(C)c3ccccc23)NC(=O)[C@H](CCC(=O)O)N(C)C(=O)[C@H](CCCC(N)=O)NC1=O.[Lu+3] [PDC_EphA2-00008010-C302] ({CH2CO}-[dA][NMe3Pal]NL[Aad](NH2)[NMeE][Trp(1-Me)]K([CO-Piperazinyl(4-CH2COOH)])[Trp(1-Me)]T[hArg]C[dK](DOTA)-NH2; thioether N-12)
Kd [3]: < 1 nM
KD [4]: 2.11e-10 M⁻¹

C[C@@H](O)[C@@H]1NC(=O)[C@H](Cc2cn(C)c3ccccc23)NC(=O)[C@H](CCCCNC(=O)N2CCN(CC(=O)O)CC2)NC(=O)[C@H](Cc2cn(C)c3c(Cl)cccc23)NC(=O)[C@H](CCC(=O)O)N(C)C(=O)[C@H](CCCC(N)=O)NC(=O)[C@H](C2CCC2)NC(=O)[C@H](CC(N)=O)NC(=O)[C@H](Cc2cccnc2)N(C)C(=O)[C@@H](Cc2cccc(C(N)=O)c2)NC(=O)CSC[C@@H](C(=O)N[C@H](CCCCNC(=O)CN2CCN(CC(=O)O)CCN(CC(=O)O)CCN(CC(=O)O)CC2)C(N)=O)NC(=O)[C@H](CCCCNC(=N)N)NC1=O.[Lu+3] [PDC_EphA2-00019443-C302] ({CH2CO}-[dPhe(3-CONH2)][NMe3Pal]N[Gly(cBu)][Aad](NH2)[NMeE][Trp(1-Me,7-Cl)]K([CO-Piperazinyl(4-CH2COOH)])[Trp(1-Me)]T[hArg]C[dK](DOTA)-NH2; thioether N-12)
Kd [3]: < 1 nM
KD [4]: 2.7e-11 M⁻¹

CC(C)C[C@@H]1NC(=O)[C@H](CC(N)=O)NC(=O)[C@H](Cc2ccccc2)N(C)C(=O)[C@@H](C)NC(=O)CSC[C@@H](C(=O)NCCC(=O)N[C@H](CCCCNC(=O)COCCOCCNC(=O)CCOCCOCCOCCOCCOCCOCCOCCOCCNC(=O)CN2CCN(CC(=O)O)CCN(CC(=O)O)CCN(CC(=O)O)CC2)C(N)=O)NC(=O)[C@H](CCC(=O)O)NC(=O)[C@H]([C@@H](C)O)NC(=O)[C@H](Cc2cn(C)c3ccccc23)NC(=O)[C@H](C(C)C)NC(=O)[C@H](Cc2cn(C)c3ccccc23)NC(=O)[C@H](Cc2ccccc2)N(C)C(=O)[C@H](CCCC(=O)O)NC1=O.[Lu+3] [PDC_EphA2-00001417-C306] ({CH2CO}-[dA][NMeF]NL[Aad][NMeF][Trp(1-Me)]V[Trp(1-Me)]TEC[βAla][dK]([AEEA-PEG8-DOTA])-NH2; thioether N-12)
half-life [1]: > 4.82 h
% Remaining Human [1]: 100%
remaining at 2 h [1]: 99%
% Remaining Mouse [2]: 100%
remaining at 2 h, 2 µM [2]: 91%
half-life at 2 µM [2]: > 289 min
Kd [3]: 1 to 10 nM
